# From PMC6826380, “Overexpression of a Novel Cytochrome P450 Promotes Flavonoid Biosynthesis and Osmotic Stress Tolerance in Transgenic Arabidopsis” (Genes, 2019)
# Tested on: T1, C[C@@H]1O[C@@H](OC[C@H]2O[C@@H](Oc3c(-c4ccc(O)c(O)c4)oc4cc(O)cc(O)c4c3=O)[C@H](O)[C@@H](O)[C@@H]2O)[C@H](O)[C@H](O)[C@H]1O
# T1 construct: N-terminal His tag, pET28a in E. coli BL21(DE3), Ni-NTA; forward coding primer starts ATGGCCGACGACTATGGC (MADDYG)
# Test: purified protein
# Type: biochemical, Carthamus tinctorius
# Details: range of rutin concentrations; no redox partner or NADPH stated
substance,measurement,value
CtCYP82G24 (Carthamus tinctorius var. tinctorius),Km,5.37 ± 0.123 mM
